Data on one molecule can be found in PMC10896730.

The assay concerns the target oxidative phosphorylation (OXPHOS) complex III (CIII), all subunits (mouse (endogenous in skeletal muscle)) (UniProt Q9CZ13). Briefly: affinity purification with mass spectrometry; IP of UQCRC2 from mouse hindlimb Skm extracts, LC–MS; stoichiometry from the slopes of protein abundance against effective number of tryptic peptides; approximate.
Sequence of UniProt Q9CZ13 (Q9CZ13 whole entry, looked up, tested part not stated, one chain of several): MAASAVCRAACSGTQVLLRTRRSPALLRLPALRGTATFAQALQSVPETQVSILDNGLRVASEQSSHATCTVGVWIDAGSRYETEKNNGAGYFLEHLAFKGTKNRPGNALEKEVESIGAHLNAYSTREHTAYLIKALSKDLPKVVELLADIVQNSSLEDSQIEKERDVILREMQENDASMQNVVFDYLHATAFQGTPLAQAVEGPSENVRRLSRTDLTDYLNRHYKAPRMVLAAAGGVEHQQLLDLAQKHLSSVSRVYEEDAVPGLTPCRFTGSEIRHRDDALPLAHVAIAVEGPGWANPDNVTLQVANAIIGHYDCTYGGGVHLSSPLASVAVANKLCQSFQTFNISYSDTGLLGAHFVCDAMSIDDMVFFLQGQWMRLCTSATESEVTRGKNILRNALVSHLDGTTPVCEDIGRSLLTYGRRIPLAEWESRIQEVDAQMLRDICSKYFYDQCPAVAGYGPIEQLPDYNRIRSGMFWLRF

B1: electron-transfer flavoprotein dehydrogenase (ETFDH) (natural protein)
chain: SSTSAVPQITTHYTVHPREKDKRWEGVNMERFAEEADVVIVGAGPAGLSAAIRLKQLAAEQGKDIRVCLVEKAAQIGAHTLSGACLDPAAFKELFPDWKEKGAPLNTPVTEDRFAILTEKHRIPVPILPGLPMNNHGNYIVRLGHLVSWMGEQAEALGVEVYPGYAAAEVLYHEDGSVKGIATNDVGIQKDGAPKTTFERGLELHAKVTVFAEGCHGHLAKQLYKKFDLRASCDAQTYGIGLKELWIIDEKKWKPGRVDHTVGWPLDRHTYGGSFLYHLNEGEPLVAVGFVVGLDYQNPYLSPFREFQRWKHHPSIQPTLEGGKRIAYGARALNEGGLQSIPKLTFPGGLLIGCSPGFMNVPKIKGTHTAMKSGSLAAESIFKQLTSENLQSKTTGLHVTEYEDNLKQSWVWKELHAVRNIRPSCHGILGVYGGMIYTGIFYWILRGMEPWTLKHKGSDSDQLKPAKDCTPIEYPKPDGQISFDLLSSVALSGTNHEHDQPAHLTLKDDSIPVNRNLSIYDGPEQRFCPAGVYEFVPLEQGDGFRLQINAQNCVHCKTCDIKDPSQNINWVVPEGGGGPAYNGM
B1 showed a stoichiometry N (ETF complex per CIII complex) of 0.5.
